Source: paper PMC9289880 (Journal of Medicinal Chemistry, 2022)
Bridges are numbered along the chain shown (N, C = ends).

Biological target: KRAS^G12D (GDP) (UniProt P01116 1-189, G12D)
Assay: cell-based or functional assay

Question: For Ac-RRCPLYISYDPVCRR-NH2 (disulfide 3-13) [peptide 2 (KRpep-2)], which “KRAS^G12D SOS GNE IC50 (TR-FRET, SOS-catalysed Bodipy-GDP/GTP exchange)” value is on record?
Answer: 54 nM
